Test results taken from paper PMC12529927, “Functional microRNA targeting without seed pairing”.
Residue numbers refer to the chain shown, from its start.

Legend:
[1] = molecular target: T1, AGO2 (loaded with guide RNA) (Homo sapiens, UniProt Q9UKV8 1-859); experiment: filter binding; not above no-site control; 18 mM HEPES pH 7.4, 100 mM K-acetate, 1 mM Mg-acetate, 0.01% IGEPAL, 0.01 mg/mL yeast tRNA, 5 mM DTT, BSA, glycerol, 37 C, 4 h, 1-5 pM target; kinetics with 10; details: protein: recombinant, tags: 3xFLAG-SUMOEu1 (removed by SENPEuB cleavage), label: 32P target
T1 sequence (Q9UKV8 whole entry): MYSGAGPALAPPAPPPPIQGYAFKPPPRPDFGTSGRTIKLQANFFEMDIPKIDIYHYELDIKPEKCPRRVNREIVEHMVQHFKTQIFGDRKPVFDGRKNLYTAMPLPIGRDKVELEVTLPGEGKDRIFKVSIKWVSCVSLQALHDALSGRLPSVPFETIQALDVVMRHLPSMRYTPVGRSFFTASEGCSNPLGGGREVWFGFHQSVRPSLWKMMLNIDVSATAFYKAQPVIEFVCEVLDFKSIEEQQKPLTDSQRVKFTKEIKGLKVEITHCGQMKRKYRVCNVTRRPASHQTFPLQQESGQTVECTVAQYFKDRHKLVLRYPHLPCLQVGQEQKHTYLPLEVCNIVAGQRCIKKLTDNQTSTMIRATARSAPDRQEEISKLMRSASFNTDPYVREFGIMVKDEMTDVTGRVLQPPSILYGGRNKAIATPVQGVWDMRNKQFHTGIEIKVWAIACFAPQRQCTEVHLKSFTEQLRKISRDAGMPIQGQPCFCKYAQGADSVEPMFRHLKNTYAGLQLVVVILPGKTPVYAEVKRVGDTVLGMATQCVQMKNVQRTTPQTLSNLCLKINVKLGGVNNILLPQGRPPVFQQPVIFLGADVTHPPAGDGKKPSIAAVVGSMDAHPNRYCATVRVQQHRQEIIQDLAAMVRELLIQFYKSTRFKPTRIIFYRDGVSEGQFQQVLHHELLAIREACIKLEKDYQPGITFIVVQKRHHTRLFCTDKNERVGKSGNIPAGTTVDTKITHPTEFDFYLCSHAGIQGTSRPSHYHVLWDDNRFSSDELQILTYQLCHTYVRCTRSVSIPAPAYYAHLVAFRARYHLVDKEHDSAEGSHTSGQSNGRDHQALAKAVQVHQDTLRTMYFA

[2] = molecular target: T1, AGO2 (loaded with guide RNA); experiment: filter binding; Kd printed only in figure; similar to m9_22; 18 mM HEPES pH 7.4, 100 mM K-acetate, 1 mM Mg-acetate, 0.01% IGEPAL, 0.01 mg/mL yeast tRNA, 5 mM DTT, BSA, glycerol, 37 C, 4 h, 1-5 pM target; kinetics with 10; details: protein: recombinant, tags: 3xFLAG-SUMOEu1 (removed by SENPEuB cleavage), label: 32P target, seed g2-8 paired
[3] = molecular target: T1, AGO2 (loaded with guide RNA); experiment: filter binding; 18 mM HEPES pH 7.4, 100 mM K-acetate, 1 mM Mg-acetate, 0.01% IGEPAL, 0.01 mg/mL yeast tRNA, 5 mM DTT, BSA, glycerol, 37 C, 4 h, 1-5 pM target; kinetics with 10; details: protein: recombinant, tags: 3xFLAG-SUMOEu1 (removed by SENPEuB cleavage)
[4] = molecular target: T1, AGO2 (loaded with guide RNA); experiment: filter binding; range over four guides; 18 mM HEPES pH 7.4, 100 mM K-acetate, 1 mM Mg-acetate, 0.01% IGEPAL, 0.01 mg/mL yeast tRNA, 5 mM DTT, BSA, glycerol, 37 C, 4 h, 1-5 pM target; kinetics with 10; details: protein: recombinant, tags: 3xFLAG-SUMOEu1 (removed by SENPEuB cleavage)
[5] = molecular target: AGO2 D669A (loaded with guide RNA) (Homo sapiens, UniProt Q9UKV8 1-859, D669A); experiment: hydroxyl radical footprinting; guide 3' region more accessible; 18 mM HEPES pH 7.4, 100 mM K-acetate, 1 mM Mg-acetate, 0.01% IGEPAL, 0.01 mg/mL yeast tRNA, 5 mM DTT, BSA, glycerol, 37 C, 4 h, 1-5 pM target; kinetics with 10; details: protein: recombinant, tags: 3xFLAG-SUMOEu1
Chain of AGO2 D669A (loaded with guide RNA) (Q9UKV8 whole entry D669A): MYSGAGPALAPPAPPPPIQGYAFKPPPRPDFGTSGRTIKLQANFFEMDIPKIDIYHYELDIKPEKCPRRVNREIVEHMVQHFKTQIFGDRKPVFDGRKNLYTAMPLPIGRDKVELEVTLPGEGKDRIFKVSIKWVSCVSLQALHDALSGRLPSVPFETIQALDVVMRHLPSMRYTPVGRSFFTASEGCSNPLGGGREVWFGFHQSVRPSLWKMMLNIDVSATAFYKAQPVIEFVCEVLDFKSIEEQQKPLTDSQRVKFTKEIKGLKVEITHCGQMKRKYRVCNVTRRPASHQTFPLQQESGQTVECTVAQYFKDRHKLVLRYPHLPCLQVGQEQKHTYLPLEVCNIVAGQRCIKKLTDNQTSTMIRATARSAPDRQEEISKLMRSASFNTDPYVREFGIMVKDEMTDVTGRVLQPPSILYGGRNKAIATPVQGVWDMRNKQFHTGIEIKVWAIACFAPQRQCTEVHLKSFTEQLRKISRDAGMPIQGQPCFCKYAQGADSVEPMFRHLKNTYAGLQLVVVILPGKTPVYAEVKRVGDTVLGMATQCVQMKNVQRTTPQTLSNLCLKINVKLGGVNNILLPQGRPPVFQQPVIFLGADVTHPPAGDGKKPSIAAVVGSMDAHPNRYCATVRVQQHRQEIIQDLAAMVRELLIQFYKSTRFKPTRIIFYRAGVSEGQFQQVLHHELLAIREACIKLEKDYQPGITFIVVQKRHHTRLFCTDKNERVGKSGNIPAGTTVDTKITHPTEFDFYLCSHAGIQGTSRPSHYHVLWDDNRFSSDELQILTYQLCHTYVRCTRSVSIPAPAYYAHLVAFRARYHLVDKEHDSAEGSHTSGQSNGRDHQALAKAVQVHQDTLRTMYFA

[6] = molecular target: T1, AGO2 (loaded with guide RNA); experiment: filter binding; upper bound, ~5 pM; 18 mM HEPES pH 7.4, 100 mM K-acetate, 1 mM Mg-acetate, 0.01% IGEPAL, 0.01 mg/mL yeast tRNA, 5 mM DTT, BSA, glycerol, 37 C, 4 h, 1-5 pM target; kinetics with 10; details: protein: recombinant, tags: 3xFLAG-SUMOEu1 (removed by SENPEuB cleavage), label: 32P target, offset +2
[7] = molecular target: T1, AGO2 (loaded with guide RNA); experiment: filter binding; no boost over m11_23; 18 mM HEPES pH 7.4, 100 mM K-acetate, 1 mM Mg-acetate, 0.01% IGEPAL, 0.01 mg/mL yeast tRNA, 5 mM DTT, BSA, glycerol, 37 C, 4 h, 1-5 pM target; kinetics with 10; details: protein: recombinant, tags: 3xFLAG-SUMOEu1 (removed by SENPEuB cleavage), label: 32P target, offset +2
[8] = molecular target: T1, AGO2 (loaded with guide RNA); experiment: filter binding; Kd printed only in figure; similar to m11_23; 18 mM HEPES pH 7.4, 100 mM K-acetate, 1 mM Mg-acetate, 0.01% IGEPAL, 0.01 mg/mL yeast tRNA, 5 mM DTT, BSA, glycerol, 37 C, 4 h, 1-5 pM target; kinetics with 10; details: protein: recombinant, tags: 3xFLAG-SUMOEu1 (removed by SENPEuB cleavage), label: 32P target, seed g2-8 paired
[9] = molecular target: T1, AGO2 (loaded with guide RNA); experiment: filter binding; modest boost over m11_23; 18 mM HEPES pH 7.4, 100 mM K-acetate, 1 mM Mg-acetate, 0.01% IGEPAL, 0.01 mg/mL yeast tRNA, 5 mM DTT, BSA, glycerol, 37 C, 4 h, 1-5 pM target; kinetics with 10; details: protein: recombinant; tags: 3xFLAG-SUMOEu1 (removed by SENPEuB cleavage); label: 32P target; g11-23 and g2-5 paired, offset +2
[10] = label: 32P target, complementary to g9-19
[11] = label: 32P target, g13-22 paired

B1: miR-124 wt / m11_18 (mixed)
RNA 1: UAAGGCACGCGGUGAAUGCCAA
RNA 2: UUUUUUUUCAUUCACCUUUUUUUUUUUU
modifications: 5'-phosphate guide
binding result ([1]; g11-18 paired): no binding

B2: miR-124 wt / 7mer-m8 (mixed)
RNA 1: UAAGGCACGCGGUGAAUGCCAA
RNA 2: UUUUUUUUUUUGUGCCUUUUUUUU
modifications: 5'-phosphate guide
binding result [2]: binds

B3: let-7a / m11_22 (also labelled m10_22) (mixed)
RNA 1: UGAGGUAGUAGGUUGUAUAGUU
RNA 2: UUUUUAACUAUACAACCUUUUUUUUUUUUUUU
modifications: 5'-phosphate guide
Kd ([3]; g11-22 paired): ~0.4 nM

B4: miR-124 wt / m9_19 (mixed)
RNA 1: UAAGGCACGCGGUGAAUGCCAA
RNA 2: UUUUUUGCAUUCACCGCUUUUUUUUUUUUUUU
modifications: 5'-phosphate guide
Kd [4, 10]: ~0.205 nM

B5: miR-124 mut / m9_19 (mixed)
RNA 1: UCUGGCUCGCGGUGAAUGCCAA
RNA 2: B4 RNA 2
modifications: 5'-phosphate guide
Kd [4, 10]: ~0.205 nM

B6: miR-124 mut / m11_18 (mixed)
RNA 1: UCUGGCUCGCGGUGAAUGCCAA
RNA 2: UUUUUUUUCAUUCACCUUUUUUUUUUUU
modifications: 5'-phosphate guide
binding result ([1]; g11-18 paired): no binding

B7: miR-155 wt / m13_20 (mixed)
RNA 1: UUAAUGCUAAUCGUGAUAGGGGU
RNA 2: UUUUUUUCCUAUCACUUUUUUUUUUUUUU
modifications: 5'-phosphate guide
binding result ([1]; g13-20 paired): no binding

B8: miR-124 wt / m9_22|+3|m1_8 (mixed)
RNA 1: UAAGGCACGCGGUGAAUGCCAA
RNA 2: UUUUUUUUGGCAUUCACCGCUUUGUGCCUUAUUUUUUUUU
modifications: 5'-phosphate guide
binding result ([5]; label: 32P guide, g9-22 and g1-8 paired, offset +3): binds

B9: miR-124 mut / 7mer-m8 (mixed)
RNA 1: UCUGGCUCGCGGUGAAUGCCAA
RNA 2: UUUUUUUUUUUGAGCCAGUUUUUU
modifications: 5'-phosphate guide
binding result [2]: binds

B10: miR-155 mut / m11_23|+2|m2_7 (mixed)
RNA 1: UUCGUGCUAAUCGUGAUAGGGGU
RNA 2: UUUUACCCCUAUCACGACCUUUGCACGAUUUU
modifications: 5'-phosphate guide
Kd ([6]; g11-23 and g2-7 paired): < 0.005 nM

B11: miR-155 mut / m11_23|+2|m2_3 (mixed)
RNA 1: UUCGUGCUAAUCGUGAUAGGGGU
RNA 2: B10 RNA 2 with G23U, C24U, A25U, C26U
modifications: 5'-phosphate guide
binding result ([7]; g11-23 and g2-3 paired): binds

B12: miR-155 mut / m11_23|+2|m2_4 (mixed)
RNA 1: UUCGUGCUAAUCGUGAUAGGGGU
RNA 2: B10 RNA 2 with G23U, C24U, A25U
modifications: 5'-phosphate guide
binding result ([7]; g11-23 and g2-4 paired): binds

B13: miR-155 mut / m11_23|+2|m2_8 (mixed)
RNA 1: UUCGUGCUAAUCGUGAUAGGGGU
RNA 2: B10 RNA 2 with U22A
modifications: 5'-phosphate guide
Kd ([6]; g11-23 and g2-8 paired): < 0.005 nM

B14: miR-155 mut / m11_23 (mixed)
RNA 1: UUCGUGCUAAUCGUGAUAGGGGU
RNA 2: UUUUUUACCCCUAUCACGACCUUUUUUUUUUUUUUU
modifications: 5'-phosphate guide
Kd ([4]; label: 32P target, g11-23 paired): ~0.0265 nM

B15: miR-155 wt / m11_23 (mixed)
RNA 1: UUAAUGCUAAUCGUGAUAGGGGU
RNA 2: B14 RNA 2
modifications: 5'-phosphate guide
Kd ([4]; g11-23 paired): ~0.0265 nM
binding result ([5]; guide:target, g11-23 paired): binds

B16: miR-155 mut / m11_23|+2|m1_8 (mixed)
RNA 1: UUCGUGCUAAUCGUGAUAGGGGU
RNA 2: UUUUUUACCCCUAUCACGACCUUAGCACGAAUUUUUUUUU
modifications: 5'-phosphate guide
Kd ([6]; g11-23 and g1-8 paired): < 0.005 nM

B17: miR-155 wt / m11_23|+2|m1_8 (mixed)
RNA 1: UUAAUGCUAAUCGUGAUAGGGGU
RNA 2: B16 RNA 2 with C28U, G29U
modifications: 5'-phosphate guide
binding result ([5]; label: 32P target (kon) or 32P guide (probing), g11-23 and g1-8 paired, offset +2): binds

B18: miR-155 mut / m13_20 (mixed)
RNA 1: UUCGUGCUAAUCGUGAUAGGGGU
RNA 2: UUUUUUUCCUAUCACUUUUUUUUUUUUUU
modifications: 5'-phosphate guide
binding result ([1]; g13-20 paired): no binding

B19: miR-155 mut / 7mer-m8 (mixed)
RNA 1: UUCGUGCUAAUCGUGAUAGGGGU
RNA 2: UUUUUUUUUAAAGCACGAUUUUUU
modifications: 5'-phosphate guide
binding result [8]: binds

B20: miR-124 wt / m9_22 (mixed)
RNA 1: UAAGGCACGCGGUGAAUGCCAA
RNA 2: UUUUUUUUGGCAUUCACCGCUUUUUUUUUUUUUUUU
modifications: 5'-phosphate guide
Kd ([4]; complementary to g9-22): ~0.0265 nM
binding result ([5]; guide:target, complementary to g9-22): binds

B21: miR-124 mut / m9_22 (mixed)
RNA 1: UCUGGCUCGCGGUGAAUGCCAA
RNA 2: B20 RNA 2
modifications: 5'-phosphate guide
Kd ([4]; label: 32P target, complementary to g9-22): ~0.0265 nM

B22: miR-155 mut / m11_23|+2|m2 (mixed)
RNA 1: UUCGUGCUAAUCGUGAUAGGGGU
RNA 2: UUUUACCCCUAUCACGACCUUUUUUUUAUUUU
modifications: 5'-phosphate guide
binding result ([7]; g11-23 and g2 paired): binds

B23: miR-155 mut / m11_23|+2|m2_5 (mixed)
RNA 1: UUCGUGCUAAUCGUGAUAGGGGU
RNA 2: UUUUUUACCCCUAUCACGACCUUUUUACGAUUUUUUUUUUUUUU
modifications: 5'-phosphate guide
binding result [9]: binds

B24: let-7a / 7mer-m8 (mixed)
RNA 1: UGAGGUAGUAGGUUGUAUAGUU
RNA 2: UUUUUUUUUUUUUUUUUUCUACCUCUUUUUUU
modifications: 5'-phosphate guide
Kd ([3]; label: 32P target, seed g2-8 paired): < 0.005 nM

B25: miR-155 wt / 7mer-m8 (mixed)
RNA 1: UUAAUGCUAAUCGUGAUAGGGGU
RNA 2: UUUUUUUUUAAAGCAUUAUUUUUU
modifications: 5'-phosphate guide
binding result [8]: binds

B26: miR-155 wt / m13_22 (mixed)
RNA 1: UUAAUGCUAAUCGUGAUAGGGGU
RNA 2: UUUUUUCCCCUAUCACUUUUUUUUUUUUUUUU
modifications: 5'-phosphate guide
Kd [4, 11]: ~0.205 nM

B27: miR-155 mut / m13_22 (mixed)
RNA 1: UUCGUGCUAAUCGUGAUAGGGGU
RNA 2: B26 RNA 2
modifications: 5'-phosphate guide
Kd [4, 11]: ~0.205 nM
